Target: T1, CLAMP (CLAMPmel) (Drosophila melanogaster, UniProt Q9V9N4 1-561)
T1 sequence: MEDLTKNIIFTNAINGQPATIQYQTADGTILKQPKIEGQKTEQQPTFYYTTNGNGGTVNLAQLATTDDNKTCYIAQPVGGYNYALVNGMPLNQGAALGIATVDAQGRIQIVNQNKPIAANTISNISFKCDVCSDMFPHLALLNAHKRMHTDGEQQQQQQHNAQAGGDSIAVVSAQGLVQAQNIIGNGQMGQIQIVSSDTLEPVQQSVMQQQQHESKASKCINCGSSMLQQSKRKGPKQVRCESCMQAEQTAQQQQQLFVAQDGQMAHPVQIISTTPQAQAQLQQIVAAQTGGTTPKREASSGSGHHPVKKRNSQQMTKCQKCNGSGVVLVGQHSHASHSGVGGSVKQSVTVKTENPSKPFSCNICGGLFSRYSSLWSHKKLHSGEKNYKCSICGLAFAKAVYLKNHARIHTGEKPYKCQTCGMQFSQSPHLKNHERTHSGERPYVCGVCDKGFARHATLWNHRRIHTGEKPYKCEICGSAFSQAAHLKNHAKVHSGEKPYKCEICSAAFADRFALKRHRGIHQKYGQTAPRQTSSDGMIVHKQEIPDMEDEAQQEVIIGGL
Experiment: EMSA

B1: Dvir 2 (dsDNA)
DNA 1: TACCAAAAACTCAAAAAGACGAGCGAGTGAAAACATATTTCCATCTCGCTCACATACTAC
DNA 2: GTAGTATGTGAGCGAGATGGAAATATGTTTTCACTCGCTCGTCTTTTTGAGTTTTTGGTA
binding result: binds

Source: doi:10.1101/2022.12.14.520423
